The values that follow come from paper PMC11388340.

Data set [1] addresses H3.3/H4 heterodimer (human | X. laevis) (UniProt P84243). The data set is described as follows: AUC; sedimentation equilibrium of H3.3/H4 alone, 4 °C, three loading concentrations, 15,000, 25,000 and 30,000 rpm, 20 mM HEPES pH 7.5, 100 mM NaCl, 100 mM KCl, 2 mM MgCl2, 1 mM EDTA, 0.05% Brij-35; monomer-dimer model: (H3.3/H4)2 tetramer to H3.3/H4 heterodimers.
Data set [2] deals with HIRA-WB/UBN1-NM complex (human) (UniProt P54198). Briefly: AUC; sedimentation velocity of the HIRA-WB/UBN1-NM/H3.3/H4 SEC peak at three loading concentrations, 4 °C, 20 mM HEPES pH 6.95, 500 mM NaCl, 0.5 mM TCEP; global fit in Sedphat to monomer-dimer self-association: 2:2:2:2 assembly to 1:1:1:1 assemblies.
For a further data set, the target named is H3.3/H4 (Homo sapiens) (UniProt P84243). To be noted: cited from earlier work.
The target in data set [3] is ASF1a-C labelled with Alexa Fluor 488 (human) (UniProt Q9Y294). Briefly: fluorescence polarisation; direct binding: protein titrated into 10 nM fluorescently labelled ASF1a-C probe; 20 mM HEPES pH 7.5, 150 mM NaCl, 0.5 mM TCEP, 0.001% Tween-20, 1 mg/ml BSA; one-site total binding model. (In general: Polarisation of emitted light reports the rotation of a fluorescent probe.)

For data set [4], the target named is HIRA-WB/UBN1-NM/H3.3/H4 complex (human | X. laevis) (UniProt P54198). Briefly: AUC; sedimentation velocity of the HIRA-WB/UBN1-NM/H3.3/H4 SEC peak at three loading concentrations, 4 °C, 20 mM HEPES pH 6.95, 500 mM NaCl, 0.5 mM TCEP; global fit in Sedphat to monomer-dimer self-association: 2:2:2:2 assembly to 1:1:1:1 assemblies.
The target of data set [5] is ASF1a-C labelled with fluorescein-5-maleimide (human) (UniProt Q9Y294). The data set is described as follows: fluorescence polarisation; direct binding: protein titrated into 10 nM fluorescently labelled ASF1a-C probe; 20 mM HEPES pH 7.5, 150 mM NaCl, 0.5 mM TCEP, 0.001% Tween-20, 1 mg/ml BSA; one-site total binding model.
Data set [6] addresses H3.3/H4 (Homo sapiens (H3.3); Xenopus laevis (H4)) (UniProt P84243+P62799). Briefly: competition. To be noted: 20 mM HEPES pH 7.5, 150 mM NaCl, 0.5 mM TCEP, 0.001% Tween-20, 1 mg/ml BSA; 10 nM probe; temperature not stated.
The target in a further data set is H3/H4 (Homo sapiens) (UniProt P84243). To be noted: cited from earlier work.

Chain of ASF1a-C labelled with fluorescein-5-maleimide (human) (Q9Y294 1-156): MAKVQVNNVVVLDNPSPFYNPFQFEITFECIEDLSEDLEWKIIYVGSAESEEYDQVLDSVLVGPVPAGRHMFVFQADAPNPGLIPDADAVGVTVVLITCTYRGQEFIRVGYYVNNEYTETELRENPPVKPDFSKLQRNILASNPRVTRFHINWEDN
Chain of ASF1a-C labelled with Alexa Fluor 488 (human) (Q9Y294 1-156): as above
Chain of ASF1a (Q9Y294 whole entry): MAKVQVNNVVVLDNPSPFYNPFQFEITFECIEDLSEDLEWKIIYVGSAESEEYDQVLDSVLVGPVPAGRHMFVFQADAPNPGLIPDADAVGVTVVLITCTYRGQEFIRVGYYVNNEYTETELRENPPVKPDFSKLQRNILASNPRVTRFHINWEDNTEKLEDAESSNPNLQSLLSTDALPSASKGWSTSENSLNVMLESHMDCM

The term Kd denotes the concentration at which binding is half-saturated. Broadly, the stoichiometry N is a count of units in the complex or per binding partner. Turning to “H3.3/H4 heterodimer (from UniProt P84243 1-136; P62799 1-103) (complex)”, in data set [1], the Kd came out at 6000 nM and the stoichiometry N is 2. In addition, the stoichiometry N in data set [2] amounted to 1.

As to UBN1 (from UniProt Q9NPG3), the Kd in the data set with H3.3/H4 (Homo sapiens) is 7000 nM.

In turn, “HIRA-WB/UBN1-NM/H3.3/H4 complex (from UniProt P54198 1-473; Q9NPG3 1-584; P84243 1-136; P62799 1-103) (complex; other documents disagree on this pair)” gave a Kd in data set [3] of 1000 nM.

In data set [4], “HIRA-WB/UBN1-NM/H3.3/H4 complex (from UniProt P54198 1-473; Q9NPG3 1-584; P84243 1-136; P62799 1-103)” registered a Kd of 6000 nM and a stoichiometry N of 2.

The substance “H3.3/H4 heterodimer (from UniProt P84243 1-136; P62799 1-103) (complex; other documents disagree on this pair)” showed a Kd in data set [5] of 280 nM.

As usually defined, the Ki is the dissociation constant of the complex between target and ligand, obtained from inhibition or displacement. A higher Ki goes with a looser hold on the target. As for 60 bp dsDNA competitor, the Ki in data set [6] amounted to 280 nM.

In the case of ASF1a (from UniProt Q9Y294), the Kd with H3/H4 (Homo sapiens) is 2.5 nM.
